pKd: −log10 of the molar value.
Assays:
Experiment in all cases: Biacore SPR
[1] = target: human V158 FcγRIIIa (human) (UniProt P08637)
human FcγRI (human) = human FcγRI (human) (UniProt P12314)
[2] = target: human H131 FcγRIIa (human) (UniProt P12318)
[3] = target: recombinant human FcγRIIb protein (R&D Systems) (human) (UniProt P31994)
recombinant human FcγRIIb protein (R&D Systems) (human), sequence (P31994 46-217): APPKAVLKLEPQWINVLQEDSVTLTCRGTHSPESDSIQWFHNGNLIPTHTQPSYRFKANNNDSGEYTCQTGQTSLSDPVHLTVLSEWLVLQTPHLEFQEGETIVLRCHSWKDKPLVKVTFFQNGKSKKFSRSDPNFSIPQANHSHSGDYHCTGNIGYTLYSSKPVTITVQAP

human FcγRI (human), sequence (P12314 16-288): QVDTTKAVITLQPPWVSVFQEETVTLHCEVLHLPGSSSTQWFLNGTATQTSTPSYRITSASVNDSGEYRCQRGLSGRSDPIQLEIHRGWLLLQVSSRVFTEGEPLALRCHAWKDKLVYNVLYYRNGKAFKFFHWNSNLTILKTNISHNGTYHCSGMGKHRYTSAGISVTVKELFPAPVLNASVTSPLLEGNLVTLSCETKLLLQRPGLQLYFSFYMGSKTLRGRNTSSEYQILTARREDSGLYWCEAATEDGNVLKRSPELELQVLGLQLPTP

pKd [1]: 7.21
pKd (human FcγRI (human)): 9.77
pKd [2]: 6.15
pKd [3]: 7.92
Substance: anti-CD19 antibody HuAM4G7 IgG1 Fc variant S239D/S267E

Source: US20230272114A1
